Test results as given in US20060142171A1, “Novel alkaline protease” (priority 2003, published 2006).
“And” between values parts separate entries of the source, which are not always exact repeats. Equal values may be shown once.

Columns and labels:
[1] = Autolytic degradation by SDS-PAGE; type: physicochemical; details: incubation at 50° C. up to 24 h; not shown
Experimental: Autolytic degradation of the protease was investigated by SDS-PAGE. The AL protease and Subtilisin Carlsberg were individually incubated in 10 mM Tris-HCl buffer 8 for 24 h at 50° C. Electrophoresis of the enzyme samples taken at different time intervals was performed according to the method of Laemmli, on 12% polyacrylamide gel using a Mini Protean II equipment (Bio-Rad, Richmond, Calif.).

[2] = Differential scanning calorimetry; type: physicochemical
Experimental: The influence of different parameters including pH, calcium ions, EDTA, and detergent on thermal stability of the AL protease was investigated by differential scanning calorimetry (DSC). Comparative studies were also performed with Subtilisin Carlsberg. Thermal scans of AL protease (0.3 mg protein/ml) and subtilisin (2.5 mg protein/ml in the presence of 1 mM phenyl-methanesulfonyl fluoride (PMSF); Sigma) were performed by increasing temperature from 25° C. to 95° C. at a scan rate of 1° C. per min on a VP-DSC (MicroCal, Northampton, Mass.). The thermograms were corrected by subtracting the base line, obtained from a blank scan of the no-enzyme solution, and normalized for protein concentration. The unfolding transition of the AL protease was fitted to a two-state model. The Tm (temperature at which heat capacity change is a maximum), the calorimetric (or true) enthalpy ΔHcal (peak area), and van't Hoff (or apparent) enthalpy AHVH (calculated from the shape of thermogram) were calculated using the Origin software provided by MicroCal.

casein = assay: Residual protease activity after incubation (pH, temperature, detergent components); type: biochemical; details: for Enzyme activity after incubation: 90 min at 40° C.; for Residual activity (% of original activity): 1 h at 50° C.
Experimental: The effect of pH on enzyme stability was studied by incubating the enzyme in different buffers of varying pH values at 50° C. for 1 h and then measuring the residual activity using standard assay procedure. AL protease was very stable in a broad pH range, maintaining over 90% of its original activity between pH 6 and 11, and more than 70% activity at pH 12 (FIG. 8A).
The effect of temperature on activity of the two proteases was determined by assaying enzyme activity at different temperatures in glycine-NaOH buffer, pH 10, while the thermal stability was determined by incubating the enzymes at different temperatures followed by measuring the residual activity under standard conditions. These measurements were done both in the presence and absence of 5 mM Ca^2+. […] Its optimum temperature for activity was at 70° C. (FIG. 9A), but when incubated at that temperature the enzyme was inactivated within 1 h (FIG. 10A). […] At temperature values above 50° C. Ca^2+ was absolutely required for the thermal stability of AL-89 protease (FIG. 10B).
Assay of protease activity was performed according to Ferrero et al. with some modifications. One millilitre of the reaction mixture containing 1% casein in 50 mM glycine-NaOH buffer, pH 10.0 and an appropriate amount of enzyme was incubated at 50° C. for 20 min after which the reaction was terminated by addition of 0.5 ml of trichloroacetic acid and centrifuged. 2.5 ml sodium carbonate was added to 0.5 ml supernatant followed by 0.5 ml of 1 M Folin-Ciocalteau reagent. The reaction mixture was allowed to stand for 30 min at room temperature before measuring the absorbance at 660 nm. One unit of protease activity was defined as the amount of enzyme, which released 1 μg tyrosine per min under standard assay conditions.
Effect of oxidation by H2O2 on AL protease stability was determined by residual activity measurements because of the temperature-induced decomposition of the peroxide in the calorimeter. […] Residual activity of the AL protease was also studied after incubation with sodium tripolyphosphate (STP; Sigma), sodium-Zeolite 4A (Prayon Tessenderlo, Belgium) and sodium citrate, respectively, representing some of the sequestering agents used in washing detergents. The enzyme activity was unchanged in the presence of 0.01-0.05% (w/v) Zeolite and STP, respectively, after 90 min at 40° C., and more than 80% of the original activity was retained in the presence of 0.5 M citrate (data not shown).

Isoelectric point = type: physicochemical
oxidized insulin B-chain = assay: Hydrolysis of oxidized insulin B-chain (MALDI-TOF); type: biochemical; details: 50° C., enzyme-substrate molar ratio of 1:100, pH 9
Experimental: To 0.38 mg of the oxidized insulin B-chain (Sigma) dissolved in 1 ml of 10 mM Tris-HCl buffer, pH 9 was added 10 μl (5.5 units) of the AL enzyme. The mixture was incubated at 50° C. for 15 min and 12 h, respectively, after which one drop (approx 40 μl) of 0.1% (v/v) TFA was added to inactivate the enzyme.
Identification of the cleavage products was performed on a matrix assisted laser desorption ionisation reflectron-type time-of-flight (MALDI-TOF) mass spectrometer (REFLEX, Bruker-Franzen Analytik; Bremen, Germany).
Cleavage of oxidized insulin B-chain by the AL protease at 50° C. was investigated using an enzyme-substrate molar ratio of 1:100. The reaction products were analyzed by MALDI-TOF mass spectrometry and identified from the mass of corresponding peptide pairs.

[3] = pre-treated with chelex, or with 5 mM Ca^2+ or 10.0 mM EDTA, pH 10.0
[4] = untreated, 10 mM glycine-NaOH buffer, pH 10.0 (subtilisin with 1 mM PMSF)

B1: AL protease: thermostable alkaline, non-Ca2+-dependent serine protease isolated from Nesterenkonia sp. nov. strain AL (DSM 15380); SEQ. ID. NO. 1 (protein, listed as Nesterenkonia sp.)
chain: QNPADSPHIGKVFFSTNQGDFVCSANIVASANQSTVATAGHCLHDGNGGQFARNFVFAPAYDYGESEHGVWAAEELVTSAEWANRGDFEHDYAFAVLETKGGTTVQQQVGTASPIAFNQPRGQYYSAYGYPAAAPFNGQELHSCHGTATNDPMGSSTQGIPCNMTGGSSGGPWFLGQGTGGAQNSVNSYGYTFLPDVMFGPYFGSGAQQNYNYAST
Degradation on gel electrophoresis [1]: unaltered | Decrease in Tm ([2]; 1% SDS vs untreated, pH 10.0): 1.4 °C | Decrease in ΔHcal ([2]; 1% SDS vs untreated, pH 10.0): 4 kcal/mol | Tm ([2]; +0.1% SDS, pH 10.0): 74.5 ± 0.03 °C | ΔHcal ([2]; +0.1% SDS, pH 10.0): 158 ± 0.7 kcal/mol | Tm ([2]; +0.5% SDS, pH 10.0): 74.1 ± 0.02 °C | ΔHcal ([2]; +0.5% SDS, pH 10.0): 158 ± 0.7 kcal/mol | Tm ([2]; +1% SDS, pH 10.0): 73.1 ± 0.02 °C | ΔHcal ([2]; +1% SDS, pH 10.0): 154 ± 0.6 kcal/mol | Mean ratio of ΔHcal to ΔHvH ([2]; at any given pH): close to unity (±0.05) | Tm ([2]; pH 6): 69.7 °C and 69.7 ± 0.02 °C | ΔHcal ([2]; pH 6): 141 kcal/mol and 141.0 ± 0.5 kcal/mol | ΔHcal/ΔHvH ([2]; pH 6): 0.94 | ΔHvH ([2]; pH 6): 150.0 ± 1.2 kcal/mol | Tm ([2]; pH 7): 73.5 ± 0.02 °C | ΔHcal ([2]; pH 7): 149.0 ± 0.5 kcal/mol | ΔHcal/ΔHvH ([2]; pH 7): 1.02 | ΔHvH ([2]; pH 7): 147.0 ± 1.2 kcal/mol | Melting temperature ([2]; pH 7-10): about 74 °C | Tm ([2]; pH 8): 74.3 ± 0.02 °C | ΔHcal ([2]; pH 8): 158.0 ± 0.5 kcal/mol | ΔHcal/ΔHvH ([2]; pH 8): 0.93 | ΔHvH ([2]; pH 8): 171.0 ± 1.2 kcal/mol | Tm ([2]; pH 9): 74.5 ± 0.02 °C | ΔHcal ([2]; pH 9): 157.5 ± 0.5 kcal/mol | ΔHcal/ΔHvH ([2]; pH 9): 1.02 | ΔHvH ([2]; pH 9): 155.0 ± 1.3 kcal/mol | Tm ([2]; pH 10): 74.5 ± 0.03 °C | ΔHcal ([2]; pH 10): 158 kcal/mol and 158.0 ± 0.5 kcal/mol | ΔHcal/ΔHvH ([2]; pH 10): 0.95 | ΔHvH ([2]; pH 10): 167.0 ± 1.7 kcal/mol | Tm ([2]; pH 11): 72.0 °C and 72.6 ± 0.02 °C | ΔHcal ([2]; pH 11): 142 kcal/mol and 141.5 ± 0.5 kcal/mol | ΔHcal/ΔHvH ([2]; pH 11): 1.01 | ΔHvH ([2]; pH 11): 141.0 ± 1.3 kcal/mol | Melting temperature, Tm ([2]; pH range of 8.0-10.0): around 74 °C | Melting profile and denaturation temperature [2, 3]: unaltered | ΔHcal [2, 3]: around 158±0.5 kcal/mol | Tm [2, 4]: 74.5 ± 0.03 °C | ΔHcal [2, 4]: 158 ± 0.6 kcal/mol | Enzyme activity after incubation (casein; 0.01-0.05% (w/v) STP, data not shown): unchanged | Enzyme activity after incubation (casein; 0.01-0.05% (w/v) Zeolite, data not shown): unchanged | Original activity retained (casein; 0.5 M citrate, data not shown): more than 80% | Activity, % of the original (casein; 1 M peroxide (H2O2) at 40° C. for 90 min): 60% | Effect on activity relative to 1 M peroxide (casein; 1.6 M peroxide (H2O2), 40° C.): did not reduce the activity further | Residual activity (% of original activity) (casein; between pH 6 and 11): over 90% | Residual activity (% of original activity) (casein; pH 12): more than 70% | Thermal stability (casein; 1 h incubation at 65° C., presence or absence of Ca^2+): very good stability | Initial activity retained (casein; 90 min incubation with 1% SDS at 40° C., pH 10.0): About 75% | Time to inactivation (casein; incubated at 70° C.): ≤ 1 h | Isoelectric point (Isoelectric point): 4.2 | Initial cleavage site in oxidized insulin B-chain (oxidized insulin B-chain): Leu^15-Ty^16
